From patent EP4818204A1 (Nanjing Leads Biolabs Co., Ltd., dated 2026) come the findings set out here.

What all share (assay): ELISA, coated protein, antibody at 4 µg/mL
Background: ELISA stands for enzyme-linked immunosorbent assay.

For one assay, the target named is T1, human GDNF protein (human, UniProt P39905 78-211).
T1 construct: Bought
T1 sequence (looked up): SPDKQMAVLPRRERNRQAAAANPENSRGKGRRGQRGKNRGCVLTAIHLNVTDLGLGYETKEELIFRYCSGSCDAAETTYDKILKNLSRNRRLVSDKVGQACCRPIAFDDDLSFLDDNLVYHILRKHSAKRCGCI

In a further assay the target is T2, human GDF3 protein (human, UniProt Q9NR23 251-364, limits assumed).
T2 construct: Bought
T2 sequence (looked up): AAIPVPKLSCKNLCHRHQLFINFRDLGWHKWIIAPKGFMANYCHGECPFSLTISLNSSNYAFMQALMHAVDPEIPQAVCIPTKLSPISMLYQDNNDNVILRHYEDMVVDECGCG

A further assay has as its target T3, human BMP4 protein (human, UniProt P12644 293-408).
T3 construct: Bought
T3 sequence (looked up): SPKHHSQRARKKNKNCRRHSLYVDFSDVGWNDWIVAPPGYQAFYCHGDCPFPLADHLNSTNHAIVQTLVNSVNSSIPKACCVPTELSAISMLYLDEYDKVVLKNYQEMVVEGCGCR

In another assay the target is T4, human Activin A protein (human, UniProt P08476 311-426).
T4 construct: Bought; Activin A is by nature a dimer of inhibin beta A chains
T4 sequence (looked up): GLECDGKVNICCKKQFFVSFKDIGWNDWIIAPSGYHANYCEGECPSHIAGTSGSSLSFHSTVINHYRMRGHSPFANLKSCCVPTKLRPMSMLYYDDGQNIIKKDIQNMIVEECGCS

The target of a further assay is T5, human Activin B protein (human, UniProt P09529 293-407).
T5 construct: Bought; Activin B is by nature a dimer of inhibin beta B chains
T5 sequence (looked up): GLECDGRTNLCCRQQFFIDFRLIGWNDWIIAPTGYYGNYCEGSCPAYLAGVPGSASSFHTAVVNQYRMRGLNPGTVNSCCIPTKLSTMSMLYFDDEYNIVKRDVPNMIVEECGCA

Another assay addresses T6, human GDF1 protein (human, UniProt P27539 254-372, limits assumed).
T6 construct: Bought
T6 sequence (looked up): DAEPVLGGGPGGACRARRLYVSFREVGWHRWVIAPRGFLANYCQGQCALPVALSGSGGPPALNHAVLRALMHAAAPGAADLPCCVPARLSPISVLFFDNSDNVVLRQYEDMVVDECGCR

B1: HuVHH43-3 (Fc fusion)
heavy: QLQLVESGGGLVQPGGSLRLSCAASGHTYGMGWFRQAPGKAREIVSAISRSGSSTYYADSVKGRFTISRDNSKNTLYLQMNSLRAEDTAVYICGASTSALVPTTTGMYAYWGQGTRVTVSSEPKSSDKTHTCPPCPAPEAAGAPSVFLFPPKPKDTLMISRTPEVTCVVVDVSHEDPEVKFNWYVDGVEVHNAKTKPREEQYNSTYRVVSVLTVLHQDWLNGKEYKCKVSNKALPAPIEKTISKAKGQPREPQVYTLPPSREEMTKNQVSLTCLVKGFYPSDIAVEWESNGQPENNYKTTPPVLDSDGSFFLYSKLTVDKSRWQQGNVFSCSVMHEALHNHYTQKSLSLSPGK
notes: also called huVHH43-IgG1-mut(L234A,L235A,G237A); VHH humanized anti-GDF15 antibody
As to B1, in the assay with human GDNF protein, the OD value (OD 450 nm-620 nm) came out at 0.273.

B2: Hu19C4C7 (antibody, human IgG1, kappa)
heavy: QVQLVQSGAEVKKPGSSVKVSCKASGYSFTGYIMNWVRQAPGQSLEWMGDIDPYYGGPNYNQKFQGRVTITVDKSTSTAYMELSSLRSEDTAVYYCSRRDYNYGSFAYWGQGTLVTVSSASTKGPSVFPLAPSSKSTSGGTAALGCLVKDYFPEPVTVSWNSGALTSGVHTFPAVLQSSGLYSLSSVVTVPSSSLGTQTYICNVNHKPSNTKVDKKVEPKSCDKTHTCPPCPAPEAAGAPSVFLFPPKPKDTLMISRTPEVTCVVVDVSHEDPEVKFNWYVDGVEVHNAKTKPREEQYNSTYRVVSVLTVLHQDWLNGKEYKCKVSNKALPAPIEKTISKAKGQPREPQVYTLPPSREEMTKNQVSLTCLVKGFYPSDIAVEWESNGQPENNYKTTPPVLDSDGSFFLYSKLTVDKSRWQQGNVFSCSVMHEALHNHYTQKSLSLSPGK
light: QIVLTQSPATLSLSPGERATLSCRASSSVNYMHWYQQKPGQAPRPLIYATSNLATGIPARFSGSGSGTDYTLTISSLEPEDFAVYYCQQWSDNPPTFGQGTKLEIKRTVAAPSVFIFPPSDEQLKSGTASVVCLLNNFYPREAKVQWKVDNALQSGNSQESVTEQDSKDSTYSLSSTLTLSKADYEKHKVYACEVTHQGLSSPVTKSFNRGEC
notes: Humanized form of murine 19C4C7; human IgG1 constant region with L234A, L235A, G237A and kappa light chain constant region; also called hu19C4C7-IgG1-mut(L234A,L235A,G237A)
Consider B2, for which the OD value is 0.0862 OD 450 nm-620 nm with human GDF3 protein; 0.0587 OD 450 nm-620 nm with human BMP4 protein; 0.0595 OD 450 nm-620 nm with human Activin A protein; 0.12 OD 450 nm-620 nm in the assay with human Activin B protein; 0.201 OD 450 nm-620 nm with human GDF1 protein.
